From patent US20250179152A1

B1: SR22 (designed binder)
chain: MGSSHHHHHHSSGLVPRGSHMEQKLISEEDLGSDLGKKLLEAARAGQDDEVRILMANGADVNACDPSGITPLHLAADKGHLEIVEVLLKYGADVNAMDVWGRTPLHLAAFTGHLEIVEVLLKYGADVNACDLNGYTPLHLAAGRGHLEIVEVLLKNGAGVNAQDKFGKTAFDISIDNGNEDLAEILQSSS
B2: FSR16m (designed binder)
chain: MGMEQKLISEEDLDGYIPEAPRDGQAYVRKDGEWVLLSTFLGGGGSLQGGGGSLQGSDLGKKLLEAARAGQDDEVRILMANGADVNALDLFGVTPLHLAAERGHLEIVEVLLKNGADVNAGDAFGRTPLHLAALGGHLEIVEVLLKNGADVNACDLYGVTPLHLAAGLGHLEIVEVLLKNGADVNAQDKFGKTAFDISIDNGNEDLAEILQSSSKLAAALEHHHHHH
B3: SR16m (designed binder)
chain: MGSSDLGKKLLEAARAGQDDEVRILMANGADVNALDLFGVTPLHLAAERGHLEIVEVLLKNGADVNAGDAFGRTPLHLAALGGHLEIVEVLLKNGADVNACDLYGVTPLHLAAGLGHLEIVEVLLKNGADVNAQDKFGKTAFDISIDNGNEDLAEILQSSSKLAAALEHHHHHH

Biological target: wild type Δ19 spike protein on pseudotyped lentivirus (SARS-CoV-2 (Wuhan-1)), P0DTC2
Assay: cell-based or functional assay

| Binder | Neutralization IC50, pseudotyped lentivirus | fold enhancement of neutralization IC50 upon trimerization (against SR16m) | IC50, pseudotyped lentivirus |
| --- | --- | --- | --- |
| B1 | 0.7 µM |  |  |
| B2 |  | 35000 fold |  |
| B3 | 11.6 µM |  | 11 µM |
